Article PMC2430192, “Identification of immune genes and proteins involved in the response of bovine mammary tissue to Staphylococcus aureus infection” (BMC Veterinary Research, 2008)
“And” between values parts separate entries of the source, which are not always exact repeats. Equal values may be shown once.

What was measured:
[1] = biological target: the molecule itself; assay: SDS-PAGE and immunoblot; 25 μl of milk whey from infected udder quarters, run under reducing conditions; detected with immunoaffinity-purified antibodies raised to rS100A12 or rPTX3
[2] = biological target: the molecule itself; assay: SDS-PAGE and immunoblot; culture supernatant of transfected Trichoplusia ni cells, reducing conditions; results not shown
[3] = biological target: T1, human C1q (human, UniProt P02745 23-245; P02746 28-253; P02747 29-245); assay: ELISA; 500 ng human C1q coated on 96-well plates in PBS pH 7.4 with 1 mM CaCl2 and 1 mM MgCl2; rtnPTX3 (12.5 ng/well, two preparations) added in PBS-Tween 20, 1 h at 37°C; bound rtnPTX3 detected with rabbit antibody raised to rPTX3; conditions: both partners purified
T1 construct: Complement C1q subcomponent subunit A, human; Complement C1q subcomponent subunit B, human; Complement C1q subcomponent subunit C, human; also called C1q component of the human complement system; source: bought: Merck; copies: + +

[4] = biological target: the molecule itself; assay: SEC; gel permeation chromatography of purified rtnPTX3 in solution; result not shown

T1 sequence (P02745 23-245, chain 1 of 3): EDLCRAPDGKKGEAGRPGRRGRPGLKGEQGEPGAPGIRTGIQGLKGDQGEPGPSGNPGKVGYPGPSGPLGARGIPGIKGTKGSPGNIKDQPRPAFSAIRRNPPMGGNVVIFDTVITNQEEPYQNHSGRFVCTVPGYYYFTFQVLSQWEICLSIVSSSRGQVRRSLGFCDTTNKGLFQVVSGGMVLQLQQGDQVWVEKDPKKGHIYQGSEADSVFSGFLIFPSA
T1 sequence (P02746 28-253, chain 2 of 3): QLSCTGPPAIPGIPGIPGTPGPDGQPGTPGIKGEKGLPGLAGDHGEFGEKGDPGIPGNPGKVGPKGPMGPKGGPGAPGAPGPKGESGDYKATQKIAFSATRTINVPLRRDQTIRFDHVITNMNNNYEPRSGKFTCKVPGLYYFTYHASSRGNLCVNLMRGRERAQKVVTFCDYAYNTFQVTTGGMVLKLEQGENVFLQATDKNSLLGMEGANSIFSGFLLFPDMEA
T1 sequence (P02747 29-245, chain 3 of 3): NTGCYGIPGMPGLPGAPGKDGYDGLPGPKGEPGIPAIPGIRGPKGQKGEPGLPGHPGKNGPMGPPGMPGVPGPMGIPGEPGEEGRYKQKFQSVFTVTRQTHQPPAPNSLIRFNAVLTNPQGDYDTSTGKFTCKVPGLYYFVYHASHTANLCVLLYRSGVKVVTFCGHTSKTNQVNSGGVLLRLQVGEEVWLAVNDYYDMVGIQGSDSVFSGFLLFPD

B1: S100 calcium-binding protein A12 (S100A12), endogenous in bovine milk whey (natural protein, bovine (endogenous in milk whey), UniProt P79105 1-92, looked up)
chain: MTKLEDHLEGIINIFHQYSVRVGHFDTLNKRELKQLITKELPKTLQNTKDQPTIDKIFQDLDADKDGAVSFEEFVVLVSRVLKTAHIDIHKE
notes: 92 amino acids, predicted size 10.7 kDa; also called calgranulin C; source: endogenous, milk whey from udder quarters infected with S. aureus
stoichiometry N [1]: 2 and 3

B2: Recombinant bovine PTX3 (rtnPTX3) produced in Trichoplusia ni insect cells (natural protein, UniProt Q0VCG9 18-382, looked up)
chain: ENSDDYELMYVNLDNEIDNGLHPTEDPTPCDCSRENSEWDKLFTMLENSQMREGMLLQATDVMLRGELQKLQAELGRLEGSLQKLCGPEAPSETRLARALDDLLQASRDAGRRLARLEDAGALRPQEEAGRALGAVLEELRRTRADLRAVQGWAASRWLPAGCETAILFPMRSKKIFASVHPVTPMKLETFSACIWVKATEVLNKTVLFSYGTKRNPYEIQLYLSYRSIMLVVGGEENRLVADAVISLGTWTHLCSTWDSKKGHMALWVNGDSVATAVDMATGHVVPEGGILQIGQEKNGCCVGGGFDETLAFSGRLTGFNIWEGVLSNEEIREAGGAESCHIRGNVVGWGVTEIQPHGGAQYVY
notes: predicted size of the mature protein 40.2 kDa; The vector pIEx5 supplies the signal peptide of adipokinetic hormone for secretion; A few vector-derived residues at the N-terminus cannot be excluded; Two bands of 43 and 45 kDa, possibly differing in glycosylation at N221; also called Pentraxin-3; source: Trichoplusia ni (High Five) insect cells, transiently transfected with pIEX5-PTX3, secreted …
stoichiometry N [2]: 2
binding result [3]: binds
stoichiometry N [4]: 10

B3: Pentraxin-3 (PTX3), endogenous in bovine milk whey (natural protein, bovine (endogenous in milk whey), UniProt Q0VCG9 18-382, looked up)
chain: ENSDDYELMYVNLDNEIDNGLHPTEDPTPCDCSRENSEWDKLFTMLENSQMREGMLLQATDVMLRGELQKLQAELGRLEGSLQKLCGPEAPSETRLARALDDLLQASRDAGRRLARLEDAGALRPQEEAGRALGAVLEELRRTRADLRAVQGWAASRWLPAGCETAILFPMRSKKIFASVHPVTPMKLETFSACIWVKATEVLNKTVLFSYGTKRNPYEIQLYLSYRSIMLVVGGEENRLVADAVISLGTWTHLCSTWDSKKGHMALWVNGDSVATAVDMATGHVVPEGGILQIGQEKNGCCVGGGFDETLAFSGRLTGFNIWEGVLSNEEIREAGGAESCHIRGNVVGWGVTEIQPHGGAQYVY
notes: Pentraxin-3 (PTX3), bovine, secreted into milk; predicted Mw of the mature protein 40.2 kDa; one potential N-linked glycosylation site (Asn221); source: endogenous, milk whey from udder quarters infected with S. aureus
stoichiometry N [1]: 2
